Source: patent US20130005646A1 (Novo Nordisk, published 2013)
Starred links: 1 amine or outer side, 2 acyl side, 3 side chain; linkers in the order of their positions; H or OH if unused. Positions of bridges follow the written chain, without caps; N, C: chain ends. Groups on a side chain read outwards from the residue. No end group written: not given here. *: point of attachment. C20 diacid = O=C(O)CCCCCCCCCCCCCCCCCCC(=O)*; γGlu = O=C(O)[C@H](CCC(=O)[*:2])N[*:1]; AEEA = NCCOCCOCC(=O)O

Key:
[1] = biological target: T1, human amylin 3(a) receptor (human calcitonin receptor + RAMP-3) (human, UniProt P30988 25-474; O60896 24-148); test: cell-based or functional assay
T1 sequence (looked up) 1: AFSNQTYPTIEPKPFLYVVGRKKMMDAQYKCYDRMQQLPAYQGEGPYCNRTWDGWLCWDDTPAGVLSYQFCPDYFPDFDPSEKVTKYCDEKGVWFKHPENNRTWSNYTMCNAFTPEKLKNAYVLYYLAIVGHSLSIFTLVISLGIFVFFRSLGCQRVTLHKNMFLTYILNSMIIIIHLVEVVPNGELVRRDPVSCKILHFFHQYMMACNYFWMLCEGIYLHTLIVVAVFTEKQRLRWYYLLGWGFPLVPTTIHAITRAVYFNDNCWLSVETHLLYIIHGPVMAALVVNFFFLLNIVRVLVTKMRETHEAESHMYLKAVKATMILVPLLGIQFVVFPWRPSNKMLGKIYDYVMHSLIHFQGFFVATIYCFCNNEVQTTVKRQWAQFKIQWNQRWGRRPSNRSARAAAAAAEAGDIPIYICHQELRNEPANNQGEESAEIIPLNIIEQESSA
T1 sequence (looked up) 2: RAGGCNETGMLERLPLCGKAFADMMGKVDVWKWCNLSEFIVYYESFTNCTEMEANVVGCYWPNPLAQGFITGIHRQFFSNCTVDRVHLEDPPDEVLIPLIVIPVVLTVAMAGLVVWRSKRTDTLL

[2] = biological target: T2, human calcitonin (a) receptor (human, UniProt P30988 25-474); test: cell-based or functional assay
T2 sequence (looked up): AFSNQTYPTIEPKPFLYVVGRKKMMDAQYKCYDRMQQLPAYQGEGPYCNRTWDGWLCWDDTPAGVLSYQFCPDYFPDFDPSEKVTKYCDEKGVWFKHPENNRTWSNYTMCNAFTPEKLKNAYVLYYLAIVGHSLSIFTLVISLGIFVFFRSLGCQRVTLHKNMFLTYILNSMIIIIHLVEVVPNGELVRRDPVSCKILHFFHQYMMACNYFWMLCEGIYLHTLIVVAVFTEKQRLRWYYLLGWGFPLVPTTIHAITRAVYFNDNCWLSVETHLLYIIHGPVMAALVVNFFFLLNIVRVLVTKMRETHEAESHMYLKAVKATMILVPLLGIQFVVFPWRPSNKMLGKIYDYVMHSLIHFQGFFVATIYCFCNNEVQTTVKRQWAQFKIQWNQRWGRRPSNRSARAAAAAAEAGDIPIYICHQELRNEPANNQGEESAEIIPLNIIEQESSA

Binder	Amylin receptor human EC50 [1] [nM]	CTa receptor human EC50 [2] [nM]
KCNTATCATQRLAEFLVHSSK([AEEA-AEEA-γGlu-19‑carboxyheptadecanoyl])NFGPILSRTNVGSHTY-NH2 (disulfide 2-7)	0.54	0.229
{C20 diacid-γGlu}-KCNTATCATQKLAEFLHHSSNNFGPILPPTNVGSNTP-NH2 (disulfide 2-7; SMILES CC[C@H](C)[C@H](NC(=O)[C@@H]1CCCN1C(=O)CNC(=O)[C@H](Cc1ccccc1)NC(=O)[C@H](CC(N)=O)NC(=O)[C@H](CC(N)=O)NC(=O)[C@H](CO)NC(=O)[C@H](CO)NC(=O)[C@H](Cc1c[nH]cn1)NC(=O)[C@H](Cc1c[nH]cn1)NC(=O)[C@H](CC(C)C)NC(=O)[C@H](Cc1ccccc1)NC(=O)[C@H](CCC(=O)O)NC(=O)[C@H](C)NC(=O)[C@H](CC(C)C)NC(=O)[C@H](CCCCN)NC(=O)[C@H](CCC(N)=O)NC(=O)[C@@H](NC(=O)[C@H](C)NC(=O)[C@@H]1CSSC[C@H](NC(=O)[C@H](CCCCN)NC(=O)CC[C@H](NC(=O)CCCCCCCCCCCCCCCCCCC(=O)O)C(=O)O)C(=O)N[C@@H](CC(N)=O)C(=O)N[C@@H]([C@@H](C)O)C(=O)N[C@@H](C)C(=O)N[C@@H]([C@@H](C)O)C(=O)N1)[C@@H](C)O)C(=O)N[C@@H](CC(C)C)C(=O)N1CCC[C@H]1C(=O)N1CCC[C@H]1C(=O)N[C@H](C(=O)N[C@@H](CC(N)=O)C(=O)N[C@H](C(=O)NCC(=O)N[C@@H](CO)C(=O)N[C@@H](CC(N)=O)C(=O)N[C@H](C(=O)N1CCC[C@H]1C(N)=O)[C@@H](C)O)C(C)C)[C@@H](C)O) [N-alpha-[(S)-4-Carboxy-4-(19-carboxynonadecanoylamino)butyryl]-[Lys11,Glu14,His17,Pro37]-pramlintide]	0.0805	0.083
{C20 diacid-γGlu}-KCNTATCATQRLAEFLHHSSTNFGPILPPTNVGSNTP-NH2 (disulfide 2-7; SMILES CC[C@H](C)[C@H](NC(=O)[C@@H]1CCCN1C(=O)CNC(=O)[C@H](Cc1ccccc1)NC(=O)[C@H](CC(N)=O)NC(=O)[C@@H](NC(=O)[C@H](CO)NC(=O)[C@H](CO)NC(=O)[C@H](Cc1c[nH]cn1)NC(=O)[C@H](Cc1c[nH]cn1)NC(=O)[C@H](CC(C)C)NC(=O)[C@H](Cc1ccccc1)NC(=O)[C@H](CCC(=O)O)NC(=O)[C@H](C)NC(=O)[C@H](CC(C)C)NC(=O)[C@H](CCCNC(=N)N)NC(=O)[C@H](CCC(N)=O)NC(=O)[C@@H](NC(=O)[C@H](C)NC(=O)[C@@H]1CSSC[C@H](NC(=O)[C@H](CCCCN)NC(=O)CC[C@H](NC(=O)CCCCCCCCCCCCCCCCCCC(=O)O)C(=O)O)C(=O)N[C@@H](CC(N)=O)C(=O)N[C@@H]([C@@H](C)O)C(=O)N[C@@H](C)C(=O)N[C@@H]([C@@H](C)O)C(=O)N1)[C@@H](C)O)[C@@H](C)O)C(=O)N[C@@H](CC(C)C)C(=O)N1CCC[C@H]1C(=O)N1CCC[C@H]1C(=O)N[C@H](C(=O)N[C@@H](CC(N)=O)C(=O)N[C@H](C(=O)NCC(=O)N[C@@H](CO)C(=O)N[C@@H](CC(N)=O)C(=O)N[C@H](C(=O)N1CCC[C@H]1C(N)=O)[C@@H](C)O)C(C)C)[C@@H](C)O) [N-alpha-[(S)-4-Carboxy-4-(19-carboxynonadecanoylamino)butyryl]-[Glu14,His17,Thr21,Pro37]-pramlintide]	0.091	0.0595
K([γGlu-C20 diacid])CNTATCATQRLAEFLHHSSQNFGAPLSSTNVGSNTP-NH2 (disulfide 2-7; N-terminus assumed; SMILES CC(C)C[C@H](NC(=O)[C@H](CCCNC(=N)N)NC(=O)[C@H](CCC(N)=O)NC(=O)[C@@H](NC(=O)[C@H](C)NC(=O)[C@@H]1CSSC[C@H](NC(=O)[C@@H](N)CCCCNC(=O)CC[C@H](NC(=O)CCCCCCCCCCCCCCCCCCC(=O)O)C(=O)O)C(=O)N[C@@H](CC(N)=O)C(=O)N[C@@H]([C@@H](C)O)C(=O)N[C@@H](C)C(=O)N[C@@H]([C@@H](C)O)C(=O)N1)[C@@H](C)O)C(=O)N[C@@H](C)C(=O)N[C@@H](CCC(=O)O)C(=O)N[C@@H](Cc1ccccc1)C(=O)N[C@@H](CC(C)C)C(=O)N[C@@H](Cc1c[nH]cn1)C(=O)N[C@@H](Cc1c[nH]cn1)C(=O)N[C@@H](CO)C(=O)N[C@@H](CO)C(=O)N[C@@H](CCC(N)=O)C(=O)N[C@@H](CC(N)=O)C(=O)N[C@@H](Cc1ccccc1)C(=O)NCC(=O)N[C@@H](C)C(=O)N1CCC[C@H]1C(=O)N[C@@H](CC(C)C)C(=O)N[C@@H](CO)C(=O)N[C@@H](CO)C(=O)N[C@H](C(=O)N[C@@H](CC(N)=O)C(=O)N[C@H](C(=O)NCC(=O)N[C@@H](CO)C(=O)N[C@@H](CC(N)=O)C(=O)N[C@H](C(=O)N1CCC[C@H]1C(N)=O)[C@@H](C)O)C(C)C)[C@@H](C)O)	0.209	0.0675
{C20 diacid-γGlu}-KCNTATCATQRLARFLRHSSNNFGPILPPTNVGSNTP-NH2 (disulfide 2-7; SMILES CC[C@H](C)[C@H](NC(=O)[C@@H]1CCCN1C(=O)CNC(=O)[C@H](Cc1ccccc1)NC(=O)[C@H](CC(N)=O)NC(=O)[C@H](CC(N)=O)NC(=O)[C@H](CO)NC(=O)[C@H](CO)NC(=O)[C@H](Cc1c[nH]cn1)NC(=O)[C@H](CCCNC(=N)N)NC(=O)[C@H](CC(C)C)NC(=O)[C@H](Cc1ccccc1)NC(=O)[C@H](CCCNC(=N)N)NC(=O)[C@H](C)NC(=O)[C@H](CC(C)C)NC(=O)[C@H](CCCNC(=N)N)NC(=O)[C@H](CCC(N)=O)NC(=O)[C@@H](NC(=O)[C@H](C)NC(=O)[C@@H]1CSSC[C@H](NC(=O)[C@H](CCCCN)NC(=O)CC[C@H](NC(=O)CCCCCCCCCCCCCCCCCCC(=O)O)C(=O)O)C(=O)N[C@@H](CC(N)=O)C(=O)N[C@@H]([C@@H](C)O)C(=O)N[C@@H](C)C(=O)N[C@@H]([C@@H](C)O)C(=O)N1)[C@@H](C)O)C(=O)N[C@@H](CC(C)C)C(=O)N1CCC[C@H]1C(=O)N1CCC[C@H]1C(=O)N[C@H](C(=O)N[C@@H](CC(N)=O)C(=O)N[C@H](C(=O)NCC(=O)N[C@@H](CO)C(=O)N[C@@H](CC(N)=O)C(=O)N[C@H](C(=O)N1CCC[C@H]1C(N)=O)[C@@H](C)O)C(C)C)[C@@H](C)O) [N-alpha-[(S)-4-Carboxy-4-(19-carboxynonadecanoylamino)butyryl]-[Arg14,Arg17,Pro37]-pramlintide]	0.129	0.453
{C20 diacid-γGlu}-GRCNTATCATQRLAEFLRHSSNNFGPILPPTNVGSNTP-NH2 (disulfide 3-8; SMILES CC[C@H](C)[C@H](NC(=O)[C@@H]1CCCN1C(=O)CNC(=O)[C@H](Cc1ccccc1)NC(=O)[C@H](CC(N)=O)NC(=O)[C@H](CC(N)=O)NC(=O)[C@H](CO)NC(=O)[C@H](CO)NC(=O)[C@H](Cc1c[nH]cn1)NC(=O)[C@H](CCCNC(=N)N)NC(=O)[C@H](CC(C)C)NC(=O)[C@H](Cc1ccccc1)NC(=O)[C@H](CCC(=O)O)NC(=O)[C@H](C)NC(=O)[C@H](CC(C)C)NC(=O)[C@H](CCCNC(=N)N)NC(=O)[C@H](CCC(N)=O)NC(=O)[C@@H](NC(=O)[C@H](C)NC(=O)[C@@H]1CSSC[C@H](NC(=O)[C@H](CCCNC(=N)N)NC(=O)CNC(=O)CC[C@H](NC(=O)CCCCCCCCCCCCCCCCCCC(=O)O)C(=O)O)C(=O)N[C@@H](CC(N)=O)C(=O)N[C@@H]([C@@H](C)O)C(=O)N[C@@H](C)C(=O)N[C@@H]([C@@H](C)O)C(=O)N1)[C@@H](C)O)C(=O)N[C@@H](CC(C)C)C(=O)N1CCC[C@H]1C(=O)N1CCC[C@H]1C(=O)N[C@H](C(=O)N[C@@H](CC(N)=O)C(=O)N[C@H](C(=O)NCC(=O)N[C@@H](CO)C(=O)N[C@@H](CC(N)=O)C(=O)N[C@H](C(=O)N1CCC[C@H]1C(N)=O)[C@@H](C)O)C(C)C)[C@@H](C)O)	0.043	0.041
KCNTATCATQRLAEFLVRSSK([AEEA-AEEA-γGlu-19‑carboxyheptadecanoyl])NFGPILSRTNVGSRTY-NH2 (disulfide 2-7)	0.344	0.732
KCNTATCATQRLAEFLHHSSK([AEEA-AEEA-γGlu-19‑carboxyheptadecanoyl])NFGPILSSTNVGSHTY-NH2 (disulfide 2-7)	1.03	0.319
